Laboratory results published in article PMC12579213 (2025).

Columns and labels:
Assay in all cases: BLI
[1] = biological target: T1, GST-tagged Rac1 (Q61L) (UniProt P63000 1-192, Q61L)
[2] = biological target: T2, GST-tagged Rac1F37W (Q61L) (UniProt P63000 1-192, F37W | Q61L)
[3] = biological target: T3, GST-tagged RhoA (Q63L) (UniProt P61586 1-193, Q63L)
[4] = biological target: T1, GST-tagged Rac1 (Q61L); remark: listed apart in the source
[5] = biological target: T2, GST-tagged Rac1F37W (Q61L); remark: listed apart in the source
[6] = biological target: T3, GST-tagged RhoA (Q63L); remark: listed apart in the source

- koff [1]: 0.00156 s⁻¹
- koff [2]: 0.00474 s⁻¹
- koff [3]: 0.000699 s⁻¹
- Kd [4]: 56 nM
- Kd [5]: 179 nM
- Kd [6]: 31 nM
B1: 6xHis-tagged RBD_(ROCK1) (domain or fragment)
chain: KDHTVSRLEEANSMLTKDIEILRRENEELTEKMKKAEEEYKLEKEEEISNLKAAFEKNINTERTLKTQAVNKLAEIMNRKDF
